The source of these data is paper PMC4224745, “Modulation, Bioinformatic Screening, and Assessment of Small Molecular Peptides Targeting the Vascular Endothelial Growth Factor Receptor” (Cell Biochemistry and Biophysics, 2014).

No end group written: not given here.

One assay deals with A549 cells. Description: Fluorescence microscopy of rhodamine-conjugated peptides binding to A549 cells. The class given is cell-based, human. As to conditions: rhodamine-conjugated peptides 45 µmol/L, fixed A549 cells, 2 h at 4 °C (method) or 6 h (results). As to the method:
The highest affinity peptides, NO.15 (QKRKRKKSRKKH) and NO.17 (RKRKRKKSRYIVLS), were conjugated with a fluorochrome, and fluorescence microscopy was used to observe binding to A549 cells as follows. A549 cells were plated on coverslips and grown overnight. The cells were then washed three times with PBS and fixed with 4 % paraformaldehyde for 15 min at room temperature. The cells were incubated at 37 °C for 30 min with 2 % BSA to block nonspecific binding, and subsequently washed three times with PBS. Rhodamine-conjugated peptides (45 µmol/L) were added and incubated with the cells for 2 h at 4 °C. After three washes with PBS, fluorescence microscopy (maximum absorption wavelength of 552 nm) was used to observe cellular staining. Unconjugated rhodamine was used as staining control.

The next assay relates to VEGFR. Nature of the assay: In vitro receptor competition binding assay with 125I-VEGF165 on A549 cells. On the set-up: species or system human. As to conditions: for IC50: A549 cells, peptide 0–6,500 nmol/L, 30 min at 4 °C, then 125I-VEGF165 0.37 μg/L for 2 h at 4 °C, γ-counter, duplicate wells, read-out: IC50, competitive VEGFR binding with 125I-VEGF; for Fold increase in affinity for VEGFR relative to VEGF125–136: from the IC50 values of the 125I-VEGF competition on A549 cells. As to the method: A549 cells were cultured in 24-well culture plates at 3 × 10^4 cells/well in duplicate for each treatment. Cultures were maintained at 37 °C in a 5 % CO2 incubator. After 24 h, the culture supernatant was discarded, and cells were washed in PBS, followed by the addition of serum-free culture medium (Hyclone, Logan, UT) before performing an in vitro competitive-binding assay. To each well, VEGF125–136 or optimized peptides were added at the following concentrations: 0, 1.3, 6.5, 32.5, 65, 650, and 6,500 nmol/L. After a 30-min incubation period at 4 °C, 1.85 kBq ^125I-VEGF165 (PerkinElmer,Boston, MA) at a final concentration of 0.37 μg/L was added to each well, and the plates were further incubated for another 2 h at 4 °C. The culture supernatant was discarded, and the cells were washed twice with pre-cooled (4 °C) PBS containing 0.1 % BSA to remove unbound ^125I-VEGF165. The cells were then trypsin digested and quickly filtered through glass fiber filter paper using a multi-channel microfluidic device. Radioactive counts (cpm) on the filter paper were determined using a γ-counter (Chongqing Optical & Electrical Instrument). Peptide competition binding curves were plotted, and IC50 values for each peptide were calculated using SPSS13.0 statistics software.

Assay [1] addresses vascular endothelial growth factor receptor (VEGFR) (human (endogenous in A549), UniProt P17948 27-1338). Description: radioligand binding; competition on A549 cells in 24-well plates, serum-free medium: peptide at 0-6,500 nmol/L for 30 min at 4 °C, then 1.85 kBq 125I-VEGF165 (0.37 μg/L) for 2 h at 4 °C; washed, trypsinised, filtered, γ-counted; IC50 by SPSS13.0. Conditions: one partner purified.

Chain of vascular endothelial growth factor receptor (VEGFR) (P17948 27-1338): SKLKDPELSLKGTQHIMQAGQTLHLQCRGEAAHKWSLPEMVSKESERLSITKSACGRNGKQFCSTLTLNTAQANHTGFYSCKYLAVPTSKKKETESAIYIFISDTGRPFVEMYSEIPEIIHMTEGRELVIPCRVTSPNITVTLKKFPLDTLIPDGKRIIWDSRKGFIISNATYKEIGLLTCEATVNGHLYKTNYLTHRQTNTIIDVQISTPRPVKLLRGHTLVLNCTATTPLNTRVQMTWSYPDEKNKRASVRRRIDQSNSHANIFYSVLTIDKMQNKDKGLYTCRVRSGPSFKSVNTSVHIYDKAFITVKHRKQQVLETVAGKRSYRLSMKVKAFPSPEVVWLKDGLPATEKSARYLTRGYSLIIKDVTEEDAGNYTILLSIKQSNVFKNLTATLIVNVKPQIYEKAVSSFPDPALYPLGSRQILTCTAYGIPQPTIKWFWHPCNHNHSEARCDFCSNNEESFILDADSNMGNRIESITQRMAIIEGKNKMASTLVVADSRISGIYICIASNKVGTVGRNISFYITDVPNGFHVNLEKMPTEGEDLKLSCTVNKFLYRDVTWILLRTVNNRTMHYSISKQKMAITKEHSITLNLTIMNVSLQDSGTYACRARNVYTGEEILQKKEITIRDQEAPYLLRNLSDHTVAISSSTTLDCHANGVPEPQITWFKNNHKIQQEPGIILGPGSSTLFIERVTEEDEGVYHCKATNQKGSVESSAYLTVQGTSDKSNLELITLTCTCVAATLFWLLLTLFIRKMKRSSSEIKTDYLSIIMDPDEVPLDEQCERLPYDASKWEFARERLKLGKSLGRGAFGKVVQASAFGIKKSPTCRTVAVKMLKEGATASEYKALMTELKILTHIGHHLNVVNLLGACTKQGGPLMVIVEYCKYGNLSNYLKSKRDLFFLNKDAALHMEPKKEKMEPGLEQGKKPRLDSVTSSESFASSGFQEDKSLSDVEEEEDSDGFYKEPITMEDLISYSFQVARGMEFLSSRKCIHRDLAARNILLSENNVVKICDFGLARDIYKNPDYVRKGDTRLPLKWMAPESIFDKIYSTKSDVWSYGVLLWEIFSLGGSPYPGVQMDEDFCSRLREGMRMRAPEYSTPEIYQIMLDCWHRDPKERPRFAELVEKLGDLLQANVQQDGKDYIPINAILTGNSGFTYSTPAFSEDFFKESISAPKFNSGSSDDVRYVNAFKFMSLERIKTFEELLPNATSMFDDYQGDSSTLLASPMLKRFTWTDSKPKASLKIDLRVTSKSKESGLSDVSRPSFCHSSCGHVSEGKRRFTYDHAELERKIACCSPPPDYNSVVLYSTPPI

Regarding QKRKRKKSRKKH [compound 15], the “Binding sites / fluorescent staining on A549 cells” value with A549 cells was “plasma membrane and perinuclear cytoplasm”. For the same molecule, the IC50 in the assay with VEGFR was 80 ± 7 nM. For the same molecule, in the assay with VEGFR (listed as QKRKRKKSRKKH), the “Fold increase in affinity for VEGFR relative to VEGF125–136” value is 6 fold and ≈ 6 fold.

Consider RKRKRKKSRYIVLS [compound 17], for which the “Binding sites / fluorescent staining on A549 cells” value in the assay on A549 cells is “plasma membrane and perinuclear cytoplasm”. Moreover, in the assay with VEGFR, the IC50 was determined as 185 ± 14 nM and the “Fold increase in affinity for VEGFR relative to VEGF125–136” value came to 2.5 fold. Turning to “rhodamine [unconjugated rhodamine, reference compound]”, in the assay with A549 cells, the “Binding sites / fluorescent staining on A549 cells” value is on record as “did not result significant levels of fluorescent staining”. Take QKRKRKKSRYKK: the IC50 in assay [1] came out at 571 ± 40 nM. In turn, RKRKRKKSRYIVLS (also called NO.17) yielded an IC50 in assay [1] of 185 ± 14 nM. The same measure, in the same setting: as for QKRKRKKSRYPK, the figure is 602 ± 19 nM; as for QFRKRKKSRYKS, 665 ± 38 nM; as for KKRKRKKSRKRK, 315 ± 11 nM. In assay [1], QKRKRKKSRYPLS came in with an IC50 of 542 ± 16 nM.

In turn, QFRKRKKSRWKS had an IC50 in assay [1] of 92 ± 9 nM.

Regarding KFRKRKKSRYIV, in assay [1], the IC50 was determined as 273 ± 33 nM.

QFRKRKKSRYPS registered an IC50 in assay [1] of 4210 ± 76 nM. Same read-out and setting: as for QFRKRKKSRYKH, the figure is 252 ± 16 nM; as for RKRKRKKSRKKH, 283 ± 9 nM; as for QFRKRKKSRYPK, 273 ± 19 nM. On the same count and under the same terms, as for QHKRKRKKSRIVL, the figure is 424 ± 37 nM; as for QFRKRKKSRYLS, 694 ± 29 nM; as for QKRKRKKSRYKS (also called Control) [VEGF_(125–136)], 464 ± 12 nM. On the same count and under the same terms, with QKRKRKKSRKKH (also called NO.15) the figure was 80 ± 7 nM; with QKRKRKKSRYRK, 405 ± 20 nM; with FFRKRKKSRYKS, 188 ± 25 nM.

On to QFRKRKKSRYKF, for which the IC50 in assay [1] amounted to 323 ± 17 nM. On the same count and under the same terms, with IVFKRKRKKSRYLS the figure was 637 ± 25 nM; with QKRKRKKSRYKY, 280 ± 13 nM.

A word on the IC50: it is the concentration at which inhibition is half-maximal.
